In the supplement of paper PMC9170038:

How the values were obtained:
Details in all cases: FMN input: 0 or 200 uM; Eterna round: R93 (includes R88 designs)
MS2 coat protein [1] = test: apparent KD of MS2 coat protein, switch ON state; designed switch direction (-1 OFF switch, 1 ON switch): 1; higher = weaker reporter binding
Summary of the method: (§1)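 Values are apparent KD, taken as the median for each design of fits to normalised binding curves from individual clusters. The designed RNA switches were transcribed on-chip from Illumina sequencing clusters and exposed to SNAP-549-labelled MS2 coat protein at twofold increasing amounts from 0.7 or 1.5 nM to 3 µM. Titration used 100 mM Tris-HCl pH 7.5, 80 mM KCl and 4 mM MgCl2, without or with constant ligand.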

MS2 coat protein [2] = test: apparent KD of MS2 coat protein, switch OFF state (with FMN for OFF switches, without FMN for ON switches); designed switch direction (-1 OFF switch, 1 ON switch): 1; higher = weaker reporter binding
Summary of the method: as §1

MS2 coat protein [3] = test: apparent KD of MS2 coat protein, switch ON state; designed switch direction (-1 OFF switch, 1 ON switch): -1; higher = weaker reporter binding
Summary of the method: as §1

MS2 coat protein [4] = test: apparent KD of MS2 coat protein, switch OFF state (with FMN for OFF switches, without FMN for ON switches); designed switch direction (-1 OFF switch, 1 ON switch): -1; higher = weaker reporter binding
Summary of the method: as §1

Row | Sequence | apparent KD of MS2 coat protein (MS2 coat protein [1]) | apparent KD of MS2 coat protein (MS2 coat protein [2]) | apparent KD of MS2 coat protein (MS2 coat protein [3]) | apparent KD of MS2 coat protein (MS2 coat protein [4])
1 | AAAAAAAAAACAUAGGAUAUCCGGGCCGGGACAUGAGGAUCACCCAUGUCAAAAAAAAUUGGCCCGGAGAAGGAUGAAAAAAAAAA [SAmeState2-II] | 11.5 nM | 14 nM |  | 
2 | AAAAAAAAAAGGCAGGAUAUUCAAAAAAAAACAUGAGGAUCACCCAUGUAAAAAAAAAAAAAAUGGAAGAAGGGCCAAAAAAAAAA [Fiskers Same State 2 D1] | 18.8 nM | 28 nM |  | 
3 | AAAAAAAAAAGUGAGGAUAUGUGAUCGGUGACAUGAGGAUCACCCAUGUGAGGCCUUCGGGCCGGACAGAAGGCACAAAAAAAAA [Same State 2-X] | 78.1 nM | 257 nM |  | 
4 | AAAAAAAAGCCCAAGGAUAUCCGGAUGAAGACAUGAGGAUCACCCAUGUGAAAAAAAAAAUAUGAGGAGAAGGUGGGAAAAAAAAA [Esgemaedso] | 63.4 nM | 76.6 nM |  | 
5 | AAAAAACAUGAGGAUCACCCAUGUAAAAAAAACACAGGAUAUCCCUUUUUUAAAAAAAAAGGAGAAGGGUGAAAAA [Nob's Hobby 7 - Jieux - Same State 1] | 31.1 nM | 31.5 nM |  | 
6 | AAAAAACAUGAGGAUCACCCAUGUAAAAAAAACACAGGAUAUCCCUUUUUUAAAUGGGAAGGAGAAGGGUGAAAAA [Nob's Hobby 11 - Jieux - Same State 1] | 43.1 nM | 36.2 nM |  | 
7 | AAAAAACAUGAGGAUCACCCAUGUAGAAAUAUGGAAGGAUAUGGAAACACGAAAGUGAAACCAGAAGGUCCAAAAG [77%, Mat - Mod of Eli, 9] | 18 nM | 23.9 nM |  | 
8 | AAAAAACAUGAGGAUCACCCAUGUCGAAAGACAUGAGGAUAUGUACAGACUUCGGUCUGUACAGAAGGCAUGUCAA [SS1 - 1020] | 19.4 nM | 107 nM |  | 
9 | AAAAAACAUGAGGAUCACCCAUGUCUUCGGACGUGAGGAUAUGUACAGACUUCGGUCUGUACAGAAGGCACAAAAA [SS1 - 1033] | 38.1 nM | 397 nM |  | 
10 | AAAAAACAUGAGGAUCACCCAUGUGAAAAUAUGGGAGGAUAUACAAAGACGAAAGUCAAAGUAGAAGGCCUAAAAA [Mat - Same State 1 - Eli mod - D86] | 18.4 nM | 132 nM |  | 
11 | AAAAAACAUGAGGAUCACCCAUGUGAGAACACGGGAGGAUAUACGAAGACGAAAGUCGAAGUAGAAGGCCUAAAAA [Garnet 82] | 21.2 nM | 75.6 nM |  | 
12 | AAAAAAGAUCGAGAGGAUAUCCGAGUGGUAACAUGAGGAUCACCCAUGUGAAGAAAGGAACAUGAGGAGAAGGCUCGAUCAAAAA [viburnum 4] | 7.85 nM | 18.7 nM |  | 
13 | AAAAAAUAAAAAAAGGAUAUAAUCGAUGGAACAUGAGGAUCACCCAUGUGACAUCGAAAAAUAAAAAAGAAGGAAAAAUAAAAAA [SS2: MS2 24] | 17.6 nM | 11.2 nM |  | 
14 | AAAAACAUGGUGCAGGAUAUAUUAAUAGUCACAUGAGGAUCACCCAUGUUCAUAUAUAUGAACGAGUAGAAGGGCGAUGAAAAAA [Mat - Same state - Malcolm Mod - D110] | 181 nM | 541 nM |  | 
15 | AAAACACAUGAGGAUCACCCAUGUAAAAACAUGAGAGGAUAUGCAUGGAAAACAUGCUAUGCAGAAGGCUCAUGUG [SS1 - 3] | 23.2 nM | 34.6 nM |  | 
16 | AAAACACAUGAGGAUCACCCAUGUAAAAACAUGGGAGGAUAUGCAUGAAAAACAUGCUAUGCAGAAGGCUCAUGUG [SS1 - 2] | 29 nM | 99.1 nM |  | 
17 | AAAACACAUGAGGAUCACCCAUGUAGAAAUACUGGAGGAUAUGCUAAAACGAAAGACAAUGUAGAAGGCCGAAAAG [saturn 11] | 71.6 nM | 208 nM |  | 
18 | AAAAUACAUGAGGAUCACCCAUGUGAAAAUAUGGGAGGAUAUACCGAAAAAAAAAAAACGGUAGAAGGCCCAAAAA [SS! 1 MT 7] | 18.7 nM | 43.5 nM |  | 
19 | AAAAUACAUGAGGAUCACCCAUGUGAGAAAAACGCAGGAUAUGCCCGAAAAAAAAGGCGGGCAGAAGGGUGAAAAA [SameState1-II] | 35.5 nM | 90.4 nM |  | 
20 | AAACCACAUGAGGAUCACCCAUGUAAAAUAAUGGGAGGAUAUACUAGAAGAAACAAAAUAGUAGAAGGCUCAAAAA [75%, Ex sub1, 34] | 28.2 nM | 97.3 nM |  | 
21 | AAACCACAUGAGGAUCACCCAUGUAGAAAUAUGGGAGGAUAUACAAAGACGAAAGUCAAAGUAGAAGGCCUAAAAG [77%, Mat - Mod of Eli, 5] | 31.4 nM | 97.5 nM |  | 
22 | AAACUGGAGGACAAGGAUAUGUGCUCUACGACAUGAGGAUCACCCAUGUGAGACGUAGUAGUGAAACAGAAGGUGUCCUAUUGUU [Qulece] | 11.6 nM | 27.4 nM |  | 

Row | Sequence | apparent KD of MS2 coat protein (MS2 coat protein [1]) | apparent KD of MS2 coat protein (MS2 coat protein [2]) | apparent KD of MS2 coat protein (MS2 coat protein [3]) | apparent KD of MS2 coat protein (MS2 coat protein [4])
23 | GAUAAACAUGAGGAUCACCCAUGUAAGGAUAUGCGCUAACUAACUAACUAACUAACUAGCAGAAGGUACACUAC [The End] |  |  | 24.4 nM | 26.5 nM
24 | GAUUAGGUAGGAUAUACAUGAGGAUCACCCAUGUAGGAAAAAAGCUACGAAAAAGAAUGUAGAAGGACCUAAAG [Mat - Exclusion 3 - Mayanna mod - D105] |  |  | 20.5 nM | 22.9 nM
25 | GCGCACUAAGGAUAUACAUGAGGAUCACCCAUGUGGGUUUUGAAACAGAUUAAAUAGUGUAGAAGGUAGAAAAC [Lees] |  |  | 91.9 nM | 95.8 nM
26 | GCUUGCCAAGGAUAUACAUGAGGAUCACCCAUGUGAGAGAAAAAAGUGAGAAAGAAAAGUAGAAGGUGGUGAGG [salish99-ex3-110] |  |  | 26.4 nM | 120 nM
27 | GCUUGGGAAGGAUAUACAUGAGGAUCACCCAUGUGAGAGAAAAAAGUGAGAAAGAAAAGUAGAAGGUCUUGAGG [salish99-ex3-84] |  |  | 69.5 nM | 69.4 nM
28 | GCUUGUGUAGGAUAUACAUGAGGAUCACCCAUGUGAGAGAAAAAAGUGAGAAAGAAAAGUAGAAGGACGUGAGG [salish99-ex3-80] |  |  | 86.5 nM | 76.5 nM
29 | GGAAAACAUGAGGAUCACCCAUGUAAGGAUAUGCAAAAAAAAAAAAGGAUAUAGAAGGGCAGAAGGUACAAAGG [salish99-ex1-30] |  |  | 23.3 nM | 36.1 nM
30 | GGAAAACAUGAGGAUCACCCAUGUAAGGAUAUGCUAAAAAAGGAAAAAAACCCACCAGGCAGAAGGUACUAAAG [Janelle Amethyst 18 Mod 3 - Jieux - Exclusion 1] |  |  | 22.7 nM | 53.2 nM
31 | GGAAAACAUGAGGAUCACCCAUGUGAGGAUAUCGAUGUCCAAAAAAAAGUGCGGGACUCGAGAAGGCACUUGGA [salish99-ex1-31] |  |  | 48.2 nM | 32.5 nM
32 | GGGUCACAUGAGGAUCACCCAUGUAAGGAUAUGCUAGGGAUGGAAACCAUUACGCAACGCAGAAGGUACUAAAG [Janelle Amethyst 18 Mod 11 - Jieux - Exclusion 1] |  |  | 40.3 nM | 59 nM
33 | GGUUGGCGAGGAUAUACAUGAGGAUCACCCAUGUGAGCGAAAAAAGUGAGAAAGAAAAGUAGAAGGCGCUGACG [salish99-ex3-50] |  |  | 45.7 nM | 60.5 nM
34 | GGUUGUGGAGGAUAUACAUGAGGAUCACCCAUGUGAGAGAAAAAAGUGAGAAAGAAAAGUAGAAGGUCGUGACG [salish99-ex3-69] |  |  | 36.8 nM | 34 nM
35 | GUGUACAGAGGAUAUACAUAAGCUAGGAAACUAGCAAGAUCACAUGAGGAUCACCCAUGUAGAAGGCUGUACAC [Ex2: 739] |  |  | 270 nM | 327 nM
36 | GUGUACAGAGGAUAUAUAUAAGCAUGGAAACAUGCAAGAUCACAUGAGGAUCACCCAUGUAGAAGGCUGUACAC [Ex2: 737] |  |  | 23.3 nM | 73.7 nM
37 | UAGAACCUAGGAUAUACUUGGGUCACUAAUUUACUGAUAUAACAUGAGGAUCACCCAUGUAGAAGGAGGAGUAA [JR_Exc002_Sub203] |  |  | 45.2 nM | 26.7 nM
38 | UGCCGUCUAGGAUAUACAUGAGGAUCACCCAUGUGACACACAUAUUUUACAAAACCAUGUAGAAGGAGACGGCA [E3-2.0] |  |  | 99.2 nM | 477 nM
39 | UGUGAACAUGAGGAUCACCCAUGUGAGGAUAUACGAGCGUGAGAAAGAUAAAACGAGCGUAGAAGGCACAAGAA [JR_Exclusion1_Sub5] |  |  | 43.3 nM | 57.5 nM
40 | UUAGAACAUGAGGAUCACCCAUGUGAGGAUAUGCAAUACUAGCGACAAGAUCAUUAUAGCAGAAGGCACGUAGU [JR_EXc001_Sub806] |  |  | 30.1 nM | 40 nM
41 | UUUACGUGAGGAUAUGCGAAUAGAACGUAAGUCAUACAGACGCAGAAGGCACAUGAGGAUCACCCAUGUGAACC [JR_Exc004_Sub312] |  |  | 20 nM | 49.8 nM
42 | UUUAUGUGAGGAUAUACGAAUAGUAAGUAAGUCUUACAGACGUAGAAGGCACAUGAGGAUCACCCAUGUGAACC [JR_Exc004_Sub309] |  |  | 46.4 nM | 277 nM
43 | UUUUGACAUGAGGAUCACCCAUGUCAGGAUAUAGUAGGACAAAAAAAAAAAAGUUCUACUAGAAGGGAUAUGAA [Design 16: Not So Super Stable 2] |  |  | 17.8 nM | 26.7 nM
